Our source for the binding score values is article PMC11098746 (2024).

What all share (test): AVEXIS screen signal:noise (double-corrected)
One test addresses T1, ADP155.
T1 chain: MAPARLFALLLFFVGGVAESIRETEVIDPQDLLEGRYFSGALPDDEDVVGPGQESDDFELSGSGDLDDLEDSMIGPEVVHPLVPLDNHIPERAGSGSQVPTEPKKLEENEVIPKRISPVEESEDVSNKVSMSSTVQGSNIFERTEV

Another test concerns the target T2, ADP154.
T2 chain: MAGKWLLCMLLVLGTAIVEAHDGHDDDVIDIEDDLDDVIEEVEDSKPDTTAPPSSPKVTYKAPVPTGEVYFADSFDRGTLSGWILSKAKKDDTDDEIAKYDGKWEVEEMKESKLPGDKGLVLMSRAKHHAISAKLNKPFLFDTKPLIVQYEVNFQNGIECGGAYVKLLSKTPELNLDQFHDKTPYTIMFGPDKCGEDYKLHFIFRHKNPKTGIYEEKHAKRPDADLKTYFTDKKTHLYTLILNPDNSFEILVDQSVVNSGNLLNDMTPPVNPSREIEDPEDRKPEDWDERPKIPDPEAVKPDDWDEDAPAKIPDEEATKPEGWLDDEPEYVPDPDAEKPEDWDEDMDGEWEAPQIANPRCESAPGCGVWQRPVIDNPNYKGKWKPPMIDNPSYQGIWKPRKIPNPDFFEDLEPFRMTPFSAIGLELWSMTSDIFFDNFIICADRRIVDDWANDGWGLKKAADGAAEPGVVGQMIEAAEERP

The target of the next test is T3, ADP385.
T3 chain: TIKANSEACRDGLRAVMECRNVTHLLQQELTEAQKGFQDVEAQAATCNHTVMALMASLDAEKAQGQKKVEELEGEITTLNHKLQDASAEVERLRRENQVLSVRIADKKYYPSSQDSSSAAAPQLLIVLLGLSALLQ

In the next test the target is T4, ADP318.
T4 chain: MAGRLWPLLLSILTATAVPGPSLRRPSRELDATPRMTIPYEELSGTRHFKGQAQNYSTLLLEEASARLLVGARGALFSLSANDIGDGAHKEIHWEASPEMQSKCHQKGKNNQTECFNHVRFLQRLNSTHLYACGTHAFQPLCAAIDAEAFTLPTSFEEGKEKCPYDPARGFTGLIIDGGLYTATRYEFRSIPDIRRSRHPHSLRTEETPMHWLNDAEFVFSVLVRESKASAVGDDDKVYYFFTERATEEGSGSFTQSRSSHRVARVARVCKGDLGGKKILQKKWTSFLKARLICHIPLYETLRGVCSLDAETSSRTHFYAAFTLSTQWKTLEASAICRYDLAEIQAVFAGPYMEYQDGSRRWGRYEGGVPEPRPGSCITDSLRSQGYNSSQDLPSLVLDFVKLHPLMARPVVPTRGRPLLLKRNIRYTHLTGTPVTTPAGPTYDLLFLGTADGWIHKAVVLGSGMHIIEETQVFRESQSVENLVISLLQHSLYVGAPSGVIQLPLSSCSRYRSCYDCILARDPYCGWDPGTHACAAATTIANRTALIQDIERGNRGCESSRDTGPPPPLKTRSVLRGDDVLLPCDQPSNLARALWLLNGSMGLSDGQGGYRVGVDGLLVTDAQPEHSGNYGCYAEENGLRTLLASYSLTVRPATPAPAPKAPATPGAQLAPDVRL

A further test concerns the target T5, ADP378.
T5 chain: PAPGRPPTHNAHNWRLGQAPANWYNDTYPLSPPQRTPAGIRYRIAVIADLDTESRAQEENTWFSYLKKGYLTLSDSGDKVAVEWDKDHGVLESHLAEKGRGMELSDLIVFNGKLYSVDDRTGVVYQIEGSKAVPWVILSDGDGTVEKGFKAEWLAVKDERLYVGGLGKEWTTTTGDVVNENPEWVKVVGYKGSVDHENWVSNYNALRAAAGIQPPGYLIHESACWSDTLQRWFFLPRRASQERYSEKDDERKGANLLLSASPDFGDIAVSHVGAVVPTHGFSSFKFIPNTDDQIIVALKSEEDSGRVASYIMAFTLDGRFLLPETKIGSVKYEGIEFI

The target of another test is T6, ADP262.
T6 chain: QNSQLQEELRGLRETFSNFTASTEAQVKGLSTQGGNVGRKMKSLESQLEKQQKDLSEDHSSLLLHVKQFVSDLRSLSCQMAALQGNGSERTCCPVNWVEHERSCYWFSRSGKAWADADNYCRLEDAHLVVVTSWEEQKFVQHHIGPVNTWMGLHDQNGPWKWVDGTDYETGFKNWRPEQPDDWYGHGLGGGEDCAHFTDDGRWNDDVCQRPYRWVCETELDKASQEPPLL

B1: ADP243 (protein)
chain: SDSYSTGGNEKEKIFMDNYKYMWTYIYFLQKRIMMKKLSHPLYMSKKFILLHNPKDIEEFRIPLKDTLWSYVDRNSIKGFININLDSIFDIDLKEYYVHDKENMANSEKSEDLECIDAYVQKTNEIYYNMADTKDEAYIFICKKCKHIYKDIKECREKSMQLMIQNMKITVPQIRLKYDKKNRNNEEIIINIPVTYVLSNLLSSLKKTVTYNTDDLNNACNVLIKMLHLDLLKILYNLQYHNGIFNGITEKYLIEFRNIFVKRQKTNTEDNNDMIWEECFVLKKSIDKIMNINSFLLTKSRNRYMDYLQNRRKRYRDILFMITYNVADMNLNTYIKSIYNYIHISTKIIEDIQYIYNQEVYATFFVRTELIETYLLRNPKQLKNTCSIYIMITISWFFNQINIGMYNKNKNVYDLFKEKFSKSNVKQIINSIYTNNVENKANILQICNDAMTNTIELIKKVIKNYYKQNNVLSNYNINFAGLIKFIDIQILRMKFIQSTLEKQPLIEYDTLNDDHLNNDAIIKRENMVCMMKYISNKINTYISLLKKSDLQTIMLQNYDKYNIYLDTYFTHNENVFFCSSPGQYLIIKIFFYSFFNILNIYG
modifications: bait human Fc-tagged dimer; N-glycosylation sequons mutated in Plasmodium baits
On to B1, for which the binding score with ADP155 came to 8.67; with ADP154, 8.73.

B2: ADP195 (protein)
chain: FRKYDKNKNKILISHSINNNNNAIKNNNNNNNAIKNNNNNNNAIKNNNNNNNAFSATSFSSEKNKNKAYTNVLKKKNIYIREESNKATNIKEDEEKNKKINNNDKETNYAFLSLKFFPFILTSLLHTGINQIPRNTEIELYEFEKSPMIRHMLVAEERKN
modifications: bait human Fc-tagged dimer; N-glycosylation sequons mutated in Plasmodium baits
As for B2, the binding score with ADP385 came to 18.7; with ADP318, 5.72.

B3: ADP244 (protein)
chain: GIITGKLNYFGTFSLKIFAKTYFQYKINTYSNLYSYCGISQEYNKAKSTCESCPIGTFWNSEKLLCENCQKYIENTATLKNGAKLKTDCLCSPGYEYSDKSSKCEKCKPGYYKKSVGNFICIKGCPINEKSITYGAKSYAEMDCKCIEGYYRKEDKCVLCLSNYYCPGNELIKPCDKNKISKEGVIHKNDCICKENYIKDNKNNNCVYCASIAKILGKPIYCSLCDPIYFHEDIYKNIFLLPNNIHNYGLINNIYNYDEDLSLQGNIMKYAYFHKTTNIERNFAHYINIKNIYHTFNNNINNYDYLTNSKFAIEIDIPEPKKCIFCDSGYYIKKKKCISCTTKYCEGFNHNPKACPKNSVVNKMKASSIFDCSCKRGYGILNERRNAYSNTITCQICPQNFFKHIISDDSCFPCPLYTYTLNQGATSILQCLPKKGYFIYMFKSINIDYLRYKFDINTENRIYNYFENNNKIFDEDVYNFFLNKQYSKFFYNTENK
modifications: bait human Fc-tagged dimer; N-glycosylation sequons mutated in Plasmodium baits
Take B3: the binding score with ADP378 came to 6.32.

B4: ADP239 (protein)
chain: NNLDKNKNFIQYKNFKKNKAYKYKNNNNNIIIINSHSHSNSHSNSHSHSNSHSNSHSHSNSHSNSHSHSNSHSHSHSNSHSNSHSHSSTQNSLYHDTNQANFLKPTSFFLYKHHVYFNQKYKKDPNILNKLKVPRNHIFHINKCDLNYYIQNYEFFFFFPDYYEYSHLYIRLDKLFYFQRCGCDTNIKKTKKRNQNIFNNMLGMKEKDTYLQNEICDIYWNYLKDDNTYDKYNFAIINYIKNIIKKMYRYLYIYKVFVLKQFYRIVYYNQGIRNFYYMLFSYIYNKGSIIYNYNQMYFKKHRKKQTIIRSKRFMNEHIKEEDVDYNIVKDEKDKSIQSTEQKSYLKNNAIQYFQCFLDKAMENKNAENELDKWIDPQSKSCYCSEEFAEPCTSEDLVDINNINQIMDNAFCEYNNNDNNNNDNNKNNNNNINNIINIYDNNILGDNVKNIFVALSEYKILQCNDKEKKDIIKKEQLYNYCKYGLNIWDNKNMYDYLNCLNVISYNKKDDKTCIRKCENIKKLCNIVAQFYSFEVCKKYYENNKHTEDIYINNFKYFSDHCKYIDPTNRGLVLCKHKNVECVYSQWSEWSTCSKTCIENEYDTNSARTRTRILLNKFEVPSKSCSFIINEKNNLMDINFCSYLPFCNKNNDMKKKDDERIMPFVISIKEIEKLNTLKYLNNDDNDLLNENYKNYESVHKNNECKVTDMYQYEYAISYNEKNKACSCPNNQAPCYFKDIYNSESWKKSLHILCKHNPHINVITADYIIIDCNMAISIKKKEIAVNTYLAMTFNCHSDIFQYIFCAKNIQSIRTN
modifications: bait human Fc-tagged dimer; N-glycosylation sequons mutated in Plasmodium baits
Turning to B4, the binding score with ADP262 stood at 6.08.
